Measured values as given in US12018066 (TRIAD NATIONAL SECURITY, dated 2024).
“And” between values parts separate entries of the source, which are not always exact repeats. Equal entries are not always repeated. Where two headings read alike, the source gives them in different places.

How the values were obtained:
[1] = target: T1, SARS-CoV-2 spike protein receptor binding domain (RBD2) (SARS-CoV-2, UniProt P0DTC2 319-537); test: SPR sandwich binning, ligand NN54
[2] = target: T1, SARS-CoV-2 spike protein receptor …; test: SPR sandwich binning, ligand B04
[3] = target: T1, SARS-CoV-2 spike protein receptor …; test: SPR sandwich binning, ligand G07
[4] = target: T1, SARS-CoV-2 spike protein receptor …; test: SPR sandwich binning, ligand E01
[5] = target: T2, human ACE2 receptor on HEK cells (Human ACE2 293 cell line) (human, UniProt Q9BYF1 18-805); test: fluorescence microscopy, PE-labelled IgG on HEK-ACE2 cells without RBD2-sfGFP
T2 construct: whole, on cells; also called HEK-ACE2; ACE2 293 cells

[6] = target: T1, SARS-CoV-2 spike protein receptor …; test: SPR sandwich binning, ligand F07
[7] = target: T1, SARS-CoV-2 spike protein receptor …; test: SPR, immobilized antibody, RBD injected, 1:1 fit
[8] = target: SARS-CoV-2 spike protein on whole SARS-CoV-2 virus (SARS-CoV-2, UniProt P0DTC2 14-1273); test: cell-based or functional assay
[9] = target: T1, SARS-CoV-2 spike protein receptor …; test: SPR sandwich binning, ligand Anti-His
[10] = target: T1, SARS-CoV-2 spike protein receptor …; test: SPR sandwich binning, ligand E08
[11] = target: T1, SARS-CoV-2 spike protein receptor …; test: SPR sandwich binning, ligand CR3022
[12] = target: T1, SARS-CoV-2 spike protein receptor …; test: SPR
[13] = target: T1, SARS-CoV-2 spike protein receptor …; test: SPR sandwich binning, ligand H01
[14] = target: T1, SARS-CoV-2 spike protein receptor …; test: SPR sandwich binning, ligand S01
[15] = target: T1, SARS-CoV-2 spike protein receptor …
[16] = target: T1, SARS-CoV-2 spike protein receptor …; test: SPR sandwich binning, ligand H05
[17] = target: T1, SARS-CoV-2 spike protein receptor …; remark: listed apart in the source
[18] = target: T1, SARS-CoV-2 spike protein receptor …; test: flow cytometry, yeast-displayed scFv
[19] = target: T1, SARS-CoV-2 spike protein receptor …; remark: listed apart in the source
[20] = target: T1, SARS-CoV-2 spike protein receptor …; test: flow cytometry, yeast-displayed scFv, titration of biotinylated antigen
[21] = target: T1, SARS-CoV-2 spike protein receptor …; remark: listed apart in the source
[22] = target: T1, SARS-CoV-2 spike protein receptor …; test: flow cytometry, yeast-expressed scFv

T2 sequence (Q9BYF1 18-805): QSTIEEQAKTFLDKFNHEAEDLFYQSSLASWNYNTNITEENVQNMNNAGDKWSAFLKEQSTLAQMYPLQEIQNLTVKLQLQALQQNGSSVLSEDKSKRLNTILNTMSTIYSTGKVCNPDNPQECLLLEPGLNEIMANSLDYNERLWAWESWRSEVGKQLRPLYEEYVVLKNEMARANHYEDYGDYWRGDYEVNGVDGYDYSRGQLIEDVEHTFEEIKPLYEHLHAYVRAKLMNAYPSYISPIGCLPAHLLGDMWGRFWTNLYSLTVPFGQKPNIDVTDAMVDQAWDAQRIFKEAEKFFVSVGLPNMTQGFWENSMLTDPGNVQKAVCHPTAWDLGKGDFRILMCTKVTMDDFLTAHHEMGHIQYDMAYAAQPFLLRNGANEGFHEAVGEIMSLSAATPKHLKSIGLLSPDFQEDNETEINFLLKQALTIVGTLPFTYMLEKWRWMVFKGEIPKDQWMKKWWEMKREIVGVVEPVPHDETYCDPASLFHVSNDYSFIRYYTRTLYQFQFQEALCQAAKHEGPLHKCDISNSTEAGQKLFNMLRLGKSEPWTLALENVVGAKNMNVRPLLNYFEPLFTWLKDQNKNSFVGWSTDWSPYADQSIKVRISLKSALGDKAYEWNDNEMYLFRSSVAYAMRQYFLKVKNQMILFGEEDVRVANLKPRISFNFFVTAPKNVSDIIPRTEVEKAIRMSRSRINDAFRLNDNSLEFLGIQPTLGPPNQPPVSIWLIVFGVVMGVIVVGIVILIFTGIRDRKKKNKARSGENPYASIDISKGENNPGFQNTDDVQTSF

| Binder | normalized analyte binding to RBD2 held by the immobilized ligand [2] | normalized analyte binding to RBD2 held by the immobilized ligand [4] | normalized analyte binding to RBD2 held by the immobilized ligand [6] | Kd [7] [nM] | normalized analyte binding to RBD2 held by the immobilized ligand [9] | normalized analyte binding to RBD2 held by the immobilized ligand [10] | normalized analyte binding to RBD2 held by the immobilized ligand [11] | Kd [12] [nM] | normalized analyte binding to RBD2 held by the immobilized ligand [13] | normalized analyte binding to RBD2 held by the immobilized ligand [14] | normalized analyte binding to RBD2 held by the immobilized ligand [16] | Kd [18] [nM] | Kd [20] [nM] | Kd [21] [nM] | also measured |
| --- | --- | --- | --- | --- | --- | --- | --- | --- | --- | --- | --- | --- | --- | --- | --- |
| F07 IgG1 (antibody, V domains shown) VH: QVQLVQSGAEVKKPGSSVRVSCKVSGYTFTGYYMHWVRQAPGQGLEWMGIINPSGGSTSYAQKFQGRVTMTRDTSTSTVYMELSSLRSEDTAVYYCARVRVGASDAFDIWGQGTMVTVSS VL: SYVLTQPPSVSVAPGQTARITCGGNNIGSKSVHWYQQKPGQAPVLVVYDDSDRPSGIPERFSGSNSGNTATLIISRVEAGDEADYYCQVWDSSSVHYVFGTGTKLTVL | -0.05 | 1.9 | 0.07 | 300 | 1.48 | 1.78 | 0.9 | 300 | 0.1 | 1.28 | 1.39 | – | – | – | normalized analyte binding to RBD2 held by the immobilized ligand [1]: 2.34; normalized analyte binding to RBD2 held by the immobilized ligand [3]: 0.14; binding result [5]: no binding (tested: 1 ug/mL); NT50 (nM), half neutralization titer [8]: 45.2 nM; Nmax (%), neutralization maximum [8]: 74.7%; Kd [15]: 300 nM |
| H05 IgG1 (antibody, V domains shown, also called H5; HO5) VH: QVQLVQSGAEVKKPGSSVKVSCKASGGTFSSYAISWVRQAPGQGLEWMGGIIPIFGTANYAQKFQGRVTITADESTSTAYMELSSLRSEDTAVYYCARSIFGVVIISHADGYYYGMDVWGQGTTVTVSS VL: SYVLTQPPSVSVAPGQTARITCGANNIGRISVHWYQQKPGQAPVLVVYDDSDRPSGIPERFSGSNFGNTATLTISRVEAGDEADYYCQVWDSYSDHVIFGGGTKLTVL | 1.75 | 1.81 | 0.9 | 51 | 1.35 | -0.12 | -0.15 | 51 | -0.1 | 1.73 | -0.17 | – | – | – | normalized analyte binding to RBD2 held by the immobilized ligand [3]: 0.9; Kd [15]: 46 nM |
| S01 IgG1 (antibody, V domains shown, also called 501) VH: QVQLVESGGGLVKPGGSLRLSCAASGFTVGSNYMSWVRQAPGKGLEWVSVIYSGGSTYYADSVKGRFTISRDNSKNTLYLQMNSLRAEDTAVYYCARGSSGAWYFDLWGRGTLVTVSS VL: EIVMTQSPSSLSASVGDSVTITCQASQDISNYLNWYQQKPGKAPKLLIYDASNLETGVPSRFSGGGSGTDFTLTITSLQPEDIATYYCQQYDNFPPTFGPGTKVDIK | 0.06 | -0.13 | 0.48 | 170 | 1 | 1.79 | 1.39 | 170 | -0.03 | -0.03 | 1.2 | – | – | – | normalized analyte binding to RBD2 held by the immobilized ligand [1]: 1.64; binding result [5]: no binding (tested: 1 ug/mL); NT50 (nM), half neutralization titer [8]: 14.6 nM; Nmax (%), neutralization maximum [8]: 106%; Kd [17]: 174 nM |
| G07 scFv (scFv) scFv: QSVLIQPPSASGTPGQRVTISCSGSNSNFGSNSVSWYQQRPGTAPKLLIEGNNQRPSGVPERFSGSKSGTSASLAISGLQSEDEAEYSCASWDDSLNAFVFGPGTKLTVLSGGSAITSYNVYYTKLSSSGTQVQLVQSGAEVKKPGESLKISCKGSGYSFTSYWIGWVRQMPGKGLEWMGIIYPGDSDIRYSPSFQGQVTISADKSFSSAYLQWSSLKASDTAMYYCARLGATGAFDIWGQGTTVTVSS | – | – | – | – | – | – | – | – | – | – | – | 60.3 | 60.3 | – | Kd [19]: 60.4 nM |
| S01 scFv (scFv, also called 501) scFv: EIVMTQSPSSLSASVGDSVTITCQASQDISNYLNWYQQKPGKAPKLLIYDASNLETGVPSRFSGGGSGTDFTLTITSLQPEDIATYYCQQYDNFPPTFGPGTKVDIKSGGSTITSYNVYYTKLSSSDTQVQLVESGGGLVKPGGSLRLSCAASGFTVGSNYMSWVRQAPGKGLEWVSVIYSGGSTYYADSVKGRFTISRDNSKNTLYLQMNSLRAEDTAVYYCARGSSGAWYFDLWGRGTLVTVSS | – | – | – | – | – | – | – | – | – | – | – | 44.1 | 44.1 | 44.8 | – |
| R26 scFv (scFv) scFv: SYELTQPPSVSVAPGQTATITCGGKNIESKSVHWYQQKPGQAPVLVVSDDTDRASGIPERFSGSNSGGAATLTISRVEAGDEADYYCQVWDSPSDHYVFGPGTKLTVLSGGSTITSYNVYYTKLSSSGTQVQLVESGGGVVQPGRSLRLSCAASGFTFSSYAMHWVRQAPGKGLEWVAVISYDGSNKYYADSVKGRFTISRDKAKNTLYLQMNSLRGEDTAVYYCARELSYYDSSGYLRGDWYFDLWGRGTLVTVSS | – | – | – | – | – | – | – | – | – | – | – | – | 65.3 | 65.3 | – |
| R04 scFv (scFv) scFv: EIVMTQSPSSLSASVGDRVTITCQASQDISNYLNWCQQKPGKAPKLLIYDASNLETGVPSRFSGSGSGTGFTFTISSLQPEDFATYYCQQSYSTPYTFGQGTKVEIKSGGSTITSYNVNYTKLSSSGAQVQLQQSGPGLVKSSQTLSLTCAISGDSVSSNGAAWHWIRQSPSRGLEWLGRTYYRSGWYNDYAVSVKSRITINQDTSKNQFSLQLNSVTPEDTAVYFCAREGGGGRMDVWSQGTTVTVSS | – | – | – | – | – | – | – | – | – | – | – | 293 | 293 | 293 | Kd [22]: > 280 nM and < 421 nM and 423 nM |
| H05 scFv (scFv, also called H5) scFv: SYVLTQPPSVSVAPGQTARITCGANNIGRISVHWYQQKPGQAPVLVVYDDSDRPSGIPERFSGSNFGNTATLTISRVEAGDEADYYCQVWDSYSDHVIFGGGTKLTVLSGGSTITSYNVYYTKLSSSGTQVQLVQSGAEVKKPGSSVKVSCKASGGTFSSYAISWVRQAPGQGLEWMGGIIPIFGTANYAQKFQGRVTITADESTSTAYMELSSLRSEDTAVYYCARSIFGVVIISHADGYYYGMDVWGQGTTVTVSS | – | – | – | – | – | – | – | – | – | – | – | 16.7 | 16.7 | – | Kd [19]: 16.7 nM |
